12 molecules from US20250276090A1, “Methods and Compositions for Genetically Modifying a Cell” (Intellia Therapeutics, Inc., priority 2022, published 2025) can be followed below.

Strand notation (5' to 3'): a small letter for the sugar, then the base; units joined by * are phosphorothioate-linked, units joined directly phosphodiester-linked; [ ] holds rarer units or linkages, { } end groups; capitals alone tell only the bases. m = 2'-O-methyl; r = 2'-OH (RNA)

In the data set the test system is AAVS1. Nature of the data set: GFP insertion at AAVS1 in T cells with SpyCas9 RNP and gapped AAV templates, flow cytometry (Example 6). The format is cell-based, human. The conditions noted are these: day 7 post-editing. Here is the method:
AAVS1 guide RNAs were designed and screened to identify insertion SpyCas9 guides using a series of gapped AAV GFP templates (A, B, C, D, OG) each designed for a subset of the guide RNAs. Insertion efficacy in T cells was examined by assessing GFP expression by flow cytometry. The percentage of T cells positive for green fluorescent protein (“% GFP+”) was assayed by flow cytometry, following AAVS1 editing by mRNA and AAV delivery.
Healthy human donor apheresis was obtained commercially (Hemacare) from two donors (#110042863 and #110040377) and cells were washed and resuspended in MACS Buffer containing 2 mM EDTA and 0.5% Fetal Bovine Serum (FBS) in PBS. Cells were washed twice by centrifugation followed by CD3 negative selection using Easy Sep Human T Cell Isolation Kit (Stemcell, Cat. 100-0695) and separated using Easy Sep Magnets (Stemcell, Cat.18000). T cells were aliquoted and cryopreserved for future use in Cryostor® CS10 (StemCell Technologies Cat. 07930).
AAVS1 guide RNAs were assessed for insertion efficacy in T cells by assessing GFP expression by flow cytometry. The percentage of T cells positive for green fluorescent protein (“% GFP+”) was assayed by flow cytometry, following AAVS1 editing by mRNA and AAV delivery.
AAVS1 targeting sgRNAs corresponding to the flanking homology regions of Gap Templates A, B, C, D, & OG (SEQ ID NOs: 299-303) were removed from their storage plates and denatured for 2 minutes at 95° C. before cooling at room temperature for 10 minutes. RNP mixture of 20 μM sgRNA and 10 μM Cas9-NLS protein (SEQ ID NO: 296) was prepared and incubated at 25° C. for 10 minutes. 2.5 μL of RNP mixture was combined with 250,000 cells in […] P3 electroporation Buffer (Lonza). 22 μL of RNP/cell mix was transferred to the corresponding wells of a Lonza shuttle 96-well electroporation plate. Cells were electroporated in duplicate with the manufacturer's pulse code. T cell media described above without any cytokines was added to the cells immediately post electroporation. T cells were rested for 10 minutes at 37° C. Gap Template AAVs were prepared in 48 well plates (Corning, Cat.353078)) with T cell media described above containing 2× cytokines, 400 U/mL recombinant human interleukin-2 (Peprotech, Cat. 200-02), 10 ng/ml recombinant human interleukin 7 (Peprotech, Cat. 200-07), and 10 ng/ml recombinant human interleukin 15 (Peprotech, Cat. 200-15) cytokines. The multiplicity of infection (MOI) of AAVs was 3×10^^5. AAVs were added to the T cells within 15 minutes post electroporation and incubated for 48 hours at 37° C. AAV-6 vectors encoded AAVS1 Template A, B, C, D or OG. Two days post-electroporation, cells were split 1:2 in 48 well plates replenished with T cell media with 1× cytokines as described above. sgRNAs were tested each with AAV constructs and gapped template.
On day 7 post-editing, cells were phenotyped by flow cytometry to determine GFP expression to confirm integration of AAV at their GAP template site. Briefly, T cells were washed in FACS buffer containing 2 mM EDTA (Invitrogen, Cat.15575020) and 1% FBS in PBS followed by re-suspending in FACS buffer containing 1:10,000 dilution of DAPI (Biolegend, Cat.422801) nuclear stain. Cells were then processed on a Cytoflex flow cytometer (Beckman Coulter) and analyzed using the FlowJo software package. T cells were gated based on size, shape, viability, and GFP expression. Values that were not determined by the flow cytometer were denoted as “ND”. Table 18 and FIGS. 8A-8B show mean percentage of T cells positive for GFP expression.

B1: G000562: AAVS1 SpyCas9 guide RNA, guide sequence SEQ ID NO: 251, chr19:55115695-55115715 (nucleic acid)
guide: mC*mC*mA*rArUrArUrCrArGrGrArGrArCrUrArGrGrArGrUrUrUrUrArGrAmGmCmUmAmGmAmAmAmUmAmGmCrArArGrUrUrArArArArUrArArGrGrCrUrArGrUrCrCrGrUrUrArUrCrAmAmCmUmUmGmAmAmAmAmAmGmUmGmGmCmAmCmCmGmAmGmUmCmGmGmUmGmCmU*mU*mU*mU
On to B1, for which the “Mean percentage of T cells positive for GFP expression” value (shortened to “Mean percentage of T cells positive”) (Donor 1, Template A) is reported as 30.60%; the “Mean percentage of T cells positive” value (Donor 1, Template B) worked out at 34.00%; the “Mean percentage of T cells positive” value (Donor 1, Template C) was 57.95%; the “Mean percentage of T cells positive” value (Donor 1, Template D) was determined as 29.65%; the “Mean percentage of T cells positive” value (Donor 1, Template OG) is 41.75%; the “Mean percentage of T cells positive” value (Donor 2, Template A) is listed as 41.20%. Also, the “Mean percentage of T cells positive” value (Donor 2, Template B) came out at 32.75%; the “Mean percentage of T cells positive” value (Donor 2, Template C) is 59.10%; the “Mean percentage of T cells positive” value (Donor 2, Template D) stood at 27.50%; the “Mean percentage of T cells positive” value (Donor 2, Template OG) was 37.80%.

B2: G013515: AAVS1 SpyCas9 guide RNA, guide sequence SEQ ID NO: 252, chr19:55115588-55115608 (nucleic acid)
guide: mC*mC*mA*rUrCrGrUrArArGrCrArArArCrCrUrUrArGrGrUrUrUrUrArGrAmGmCmUmAmGmAmAmAmUmAmGmCrArArGrUrUrArArArArUrArArGrGrCrUrArGrUrCrCrGrUrUrArUrCrAmAmCmUmUmGmAmAmAmAmAmGmUmGmGmCmAmCmCmGmAmGmUmCmGmGmUmGmCmU*mU*mU*mU
With B2, the “Mean percentage of T cells positive” value is 61.15% (Donor 1, Template C) and 60.95% (Donor 2, Template C).

B3: G013520: AAVS1 SpyCas9 guide RNA, guide sequence SEQ ID NO: 254, chr19:55115623-55115643 (nucleic acid)
guide: mG*mA*mG*rArGrArUrGrGrCrUrCrCrArGrGrArArArUrGrUrUrUrUrArGrAmGmCmUmAmGmAmAmAmUmAmGmCrArArGrUrUrArArArArUrArArGrGrCrUrArGrUrCrCrGrUrUrArUrCrAmAmCmUmUmGmAmAmAmAmAmGmUmGmGmCmAmCmCmGmAmGmUmCmGmGmUmGmCmU*mU*mU*mU
On to B3, for which the “Mean percentage of T cells positive” value (Donor 1, Template D) is recorded as 71.80% and the “Mean percentage of T cells positive” value (Donor 2, Template D) was found to be 72.20%.

B4: G013533: AAVS1 SpyCas9 guide RNA, guide sequence SEQ ID NO: 256, chr19:55115691-55115711 (nucleic acid)
guide: mA*mG*mA*rCrCrCrArArUrArUrCrArGrGrArGrArCrUrGrUrUrUrUrArGrAmGmCmUmAmGmAmAmAmUmAmGmCrArArGrUrUrArArArArUrArArGrGrCrUrArGrUrCrCrGrUrUrArUrCrAmAmCmUmUmGmAmAmAmAmAmGmUmGmGmCmAmCmCmGmAmGmUmCmGmGmUmGmCmU*mU*mU*mU
On to B4, for which the “Mean percentage of T cells positive” value (Donor 1, Template C) came to 65.65% and the “Mean percentage of T cells positive” value (Donor 2, Template C) worked out at 65.15%.

B5: G013563: AAVS1 SpyCas9 guide RNA, guide sequence SEQ ID NO: 260, chr19:55115835-55115855 (nucleic acid)
guide: mA*mU*mA*rUrArArGrGrUrGrGrUrCrCrCrArGrCrUrCrGrUrUrUrUrArGrAmGmCmUmAmGmAmAmAmUmAmGmCrArArGrUrUrArArArArUrArArGrGrCrUrArGrUrCrCrGrUrUrArUrCrAmAmCmUmUmGmAmAmAmAmAmGmUmGmGmCmAmCmCmGmAmGmUmCmGmGmUmGmCmU*mU*mU*mU
With B5, the “Mean percentage of T cells positive” value came out at 73.15% (Donor 1, Template A); 69.15% (Donor 1, Template B); 69.40% (Donor 2, Template A); 71.35% (Donor 2, Template B).

B6: G013584: AAVS1 SpyCas9 guide RNA, guide sequence SEQ ID NO: 264, chr19:55115949-55115969 (nucleic acid)
guide: mC*mC*mC*rUrGrGrArArGrArUrGrCrCrArUrGrArCrArGrUrUrUrUrArGrAmGmCmUmAmGmAmAmAmUmAmGmCrArArGrUrUrArArArArUrArArGrGrCrUrArGrUrCrCrGrUrUrArUrCrAmAmCmUmUmGmAmAmAmAmAmGmUmGmGmCmAmCmCmGmAmGmUmCmGmGmUmGmCmU*mU*mU*mU
B6: the “Mean percentage of T cells positive” value is 69.15% (Donor 1, Template A) and 62.95% (Donor 2, Template A).

B7: G013582: AAVS1 SpyCas9 guide RNA, guide sequence SEQ ID NO: 263, chr19:55115951-55115971 (nucleic acid)
guide: mC*mC*mU*rGrUrCrArUrGrGrCrArUrCrUrUrCrCrArGrGrUrUrUrUrArGrAmGmCmUmAmGmAmAmAmUmAmGmCrArArGrUrUrArArArArUrArArGrGrCrUrArGrUrCrCrGrUrUrArUrCrAmAmCmUmUmGmAmAmAmAmAmGmUmGmGmCmAmCmCmGmAmGmUmCmGmGmUmGmCmU*mU*mU*mU
Turning to B7, the “Mean percentage of T cells positive” value is, setting by setting: (Donor 1, Template A) 66.30%; (Donor 2, Template A) 61.00%.

B8: G013562: AAVS1 SpyCas9 guide RNA, guide sequence SEQ ID NO: 259, chr19:55115834-55115854 (nucleic acid)
guide: mA*mA*mU*rArUrArArGrGrUrGrGrUrCrCrCrArGrCrUrGrUrUrUrUrArGrAmGmCmUmAmGmAmAmAmUmAmGmCrArArGrUrUrArArArArUrArArGrGrCrUrArGrUrCrCrGrUrUrArUrCrAmAmCmUmUmGmAmAmAmAmAmGmUmGmGmCmAmCmCmGmAmGmUmCmGmGmUmGmCmU*mU*mU*mU
Turning to B8, the “Mean percentage of T cells positive” value (Donor 1, Template A) is on record as 65.75%; the “Mean percentage of T cells positive” value (Donor 1, Template B) is recorded as 63.60%; the “Mean percentage of T cells positive” value (Donor 2, Template A) was found to be 62.35%; the “Mean percentage of T cells positive” value (Donor 2, Template B) came to 65.40%.

B9: G013564: AAVS1 SpyCas9 guide RNA, guide sequence SEQ ID NO: 261, chr19:55115836-55115856 (nucleic acid)
guide: mU*mA*mU*rArArGrGrUrGrGrUrCrCrCrArGrCrUrCrGrGrUrUrUrUrArGrAmGmCmUmAmGmAmAmAmUmAmGmCrArArGrUrUrArArArArUrArArGrGrCrUrArGrUrCrCrGrUrUrArUrCrAmAmCmUmUmGmAmAmAmAmAmGmUmGmGmCmAmCmCmGmAmGmUmCmGmGmUmGmCmU*mU*mU*mU
As for B9, the “Mean percentage of T cells positive” value reads like this: (Donor 1, Template A) 65.95%; (Donor 1, Template B) 61.50%; (Donor 2, Template A) 61.20%; (Donor 2, Template B) 63.45%.

B10: G013565: AAVS1 SpyCas9 guide RNA, guide sequence SEQ ID NO: 262, chr19:55115850-55115870 (nucleic acid)
guide: mG*mG*mA*rUrCrCrUrGrUrGrUrCrCrCrCrGrArGrCrUrGrUrUrUrUrArGrAmGmCmUmAmGmAmAmAmUmAmGmCrArArGrUrUrArArArArUrArArGrGrCrUrArGrUrCrCrGrUrUrArUrCrAmAmCmUmUmGmAmAmAmAmAmGmUmGmGmCmAmCmCmGmAmGmUmCmGmGmUmGmCmU*mU*mU*mU
As for B10, the “Mean percentage of T cells positive” value was 63.50% (Donor 1, Template B) and 65.00% (Donor 2, Template B).

B11: G013559: AAVS1 SpyCas9 guide RNA, guide sequence SEQ ID NO: 258, chr19:55115823-55115843 (nucleic acid)
guide: mC*mC*mG*rGrCrCrCrUrGrGrGrArArUrArUrArArGrGrGrUrUrUrUrArGrAmGmCmUmAmGmAmAmAmUmAmGmCrArArGrUrUrArArArArUrArArGrGrCrUrArGrUrCrCrGrUrUrArUrCrAmAmCmUmUmGmAmAmAmAmAmGmUmGmGmCmAmCmCmGmAmGmUmCmGmGmUmGmCmU*mU*mU*mU
Take B11: the “Mean percentage of T cells positive” value amounted to 65.55% (Donor 1, Template B) and 64.05% (Donor 2, Template B).

B12: G013519: AAVS1 SpyCas9 guide RNA, guide sequence SEQ ID NO: 253, chr19:55115616-55115636 (nucleic acid)
guide: mG*mC*mA*rArGrGrArGrArGrArGrArUrGrGrCrUrCrCrGrUrUrUrUrArGrAmGmCmUmAmGmAmAmAmUmAmGmCrArArGrUrUrArArArArUrArArGrGrCrUrArGrUrCrCrGrUrUrArUrCrAmAmCmUmUmGmAmAmAmAmAmGmUmGmGmCmAmCmCmGmAmGmUmCmGmGmUmGmCmU*mU*mU*mU
For the molecule B12, the “Mean percentage of T cells positive” value reads like this: (Donor 1, Template D) 73.35%; (Donor 2, Template D) 72.10%.
